Values quoted from earlier work in PMC10364474.

Biological target: integrin α5β1 (Homo sapiens) (UniProt P08648)
Sequence of UniProt P08648 (P08648 42-995, chain 1 of 2): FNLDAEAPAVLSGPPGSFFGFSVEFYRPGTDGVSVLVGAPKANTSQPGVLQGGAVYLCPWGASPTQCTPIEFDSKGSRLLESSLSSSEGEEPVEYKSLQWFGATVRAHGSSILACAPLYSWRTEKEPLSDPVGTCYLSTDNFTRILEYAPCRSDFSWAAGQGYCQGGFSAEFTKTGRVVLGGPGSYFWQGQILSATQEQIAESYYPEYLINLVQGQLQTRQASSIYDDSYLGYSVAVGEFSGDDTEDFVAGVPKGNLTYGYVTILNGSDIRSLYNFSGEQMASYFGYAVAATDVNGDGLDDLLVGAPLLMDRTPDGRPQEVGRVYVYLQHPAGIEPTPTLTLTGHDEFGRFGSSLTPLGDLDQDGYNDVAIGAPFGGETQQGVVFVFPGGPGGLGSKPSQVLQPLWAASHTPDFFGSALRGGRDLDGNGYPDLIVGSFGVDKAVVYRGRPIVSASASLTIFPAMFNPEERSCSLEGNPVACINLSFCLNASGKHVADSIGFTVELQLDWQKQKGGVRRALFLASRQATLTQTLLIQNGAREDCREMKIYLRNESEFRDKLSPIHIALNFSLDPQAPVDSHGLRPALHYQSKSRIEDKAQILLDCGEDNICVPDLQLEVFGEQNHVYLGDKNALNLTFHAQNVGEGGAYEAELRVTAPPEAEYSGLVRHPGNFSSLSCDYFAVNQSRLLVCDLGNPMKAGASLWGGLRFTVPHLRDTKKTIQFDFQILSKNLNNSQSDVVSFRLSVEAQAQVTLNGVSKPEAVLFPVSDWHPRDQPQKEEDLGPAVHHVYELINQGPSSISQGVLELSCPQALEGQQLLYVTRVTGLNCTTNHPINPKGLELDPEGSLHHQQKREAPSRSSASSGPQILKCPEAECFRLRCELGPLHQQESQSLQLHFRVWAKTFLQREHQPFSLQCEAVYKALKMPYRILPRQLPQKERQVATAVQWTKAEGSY
Sequence of UniProt P08648 (P05556 21-728, chain 2 of 2, further chain): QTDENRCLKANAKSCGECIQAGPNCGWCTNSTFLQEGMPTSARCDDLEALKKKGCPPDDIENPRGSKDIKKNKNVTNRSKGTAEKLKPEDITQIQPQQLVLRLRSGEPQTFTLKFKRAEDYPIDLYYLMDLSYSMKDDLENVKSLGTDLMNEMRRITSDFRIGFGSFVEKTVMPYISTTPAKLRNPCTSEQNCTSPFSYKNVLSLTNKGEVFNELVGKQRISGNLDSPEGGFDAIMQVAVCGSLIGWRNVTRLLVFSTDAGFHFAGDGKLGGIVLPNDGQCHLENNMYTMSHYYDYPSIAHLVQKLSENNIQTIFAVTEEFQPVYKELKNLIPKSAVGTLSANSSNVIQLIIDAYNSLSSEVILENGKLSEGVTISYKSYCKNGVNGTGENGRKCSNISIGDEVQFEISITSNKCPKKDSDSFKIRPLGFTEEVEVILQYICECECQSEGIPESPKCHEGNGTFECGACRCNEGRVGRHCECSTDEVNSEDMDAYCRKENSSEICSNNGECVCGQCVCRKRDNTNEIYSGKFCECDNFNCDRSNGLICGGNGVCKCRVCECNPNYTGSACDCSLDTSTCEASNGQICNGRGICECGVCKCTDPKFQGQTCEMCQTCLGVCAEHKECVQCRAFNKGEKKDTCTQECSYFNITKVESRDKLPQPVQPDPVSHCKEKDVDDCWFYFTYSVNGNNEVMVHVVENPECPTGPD

- Kd: 0.065 µM
Substance: Fibrinogen alpha chain RGD 572-574 (from UniProt P02671)
